Experimental data published in article doi:10.1101/2021.11.29.470395 (bioRxiv, 2021).

B1: full-length FtsZ from E. coli (natural protein, Escherichia coli, UniProt P0A9A6 1-383, looked up)
chain: MFEPMELTNDAVIKVIGVGGGGGNAVEHMVRERIEGVEFFAVNTDAQALRKTAVGQTIQIGSGITKGLGAGANPEVGRNAADEDRDALRAALEGADMVFIAAGMGGGTGTGAAPVVAEVAKDLGILTVAVVTKPFNFEGKKRMAFAEQGITELSKHVDSLITIPNDKLLKVLGRGISLLDAFGAANDVLKGAVQGIAELITRPGLMNVDFADVRTVMSEMGYAMMGSGVASGEDRAEEAAEMAISSPLLEDIDLSGARGVLVNITAGFDLRLDEFETVGNTIRAFASDNATVVIGTSLDPDMNDELRVTVVATGIGMDKRPEITLVTNKQVQQPVMDRYQQHGMAPLTQEQKPVAKVVNDNAPQTAKEPDYLDIPAFLRKQAD
notes: FtsZ of Escherichia coli, full length, wild type protein; also called EcFtsZ; source: purified as described [48]
B2: full-length FtsZ from methicillin-resistant S. aureus Mu50/ATCC 700699 (natural protein)
chain: MLEFEQGFNHLATLKVIGVGGGGNNAVNRMIDHGMNNVEFIAINTDGQALNLSKAESKIQIGEKLTRGLGAGANPEIGKKAAEESREQIEDAIQGADMVFVTSGMGGGTGTGAAPVVAKIAKEMGALTVGVVTRPFSFEGRKRQTQAAAGVEAMKAAVDTLIVIPNDRLLDIVDKSTPMMEAFKEADNVLRQGVQGISDLIAVSGEVNLDFADVKTIMSNQGSALMGIGVSSGENRAVEAAKKAISSPLLETSIVGAQGVLMNITGGESLSLFEAQEAADIVQDAADEDVNMIFGTVINPELQDEIVVTVIATGFDDKPTSHGRKSGSTGFGTSVNTSSNATSKDESFTSNSSNAQATDSVSERTHTTKEDDIPSFIRNREERRSRRTRR

What was measured:
[1] = target: the molecule itself; experiment: right angle light scattering at 350 nm; full-length SaFtsZf (49 µM) or EcFtsZ (25 µM), 1 mM GTP with or without BeF3-, 10 mM MgCl2; MES assembly buffer, 25 °C
[2] = target: the molecule itself; experiment: right angle light scattering at 350 nm

| Protein | binding result [1] | binding result [2] |
| --- | --- | --- |
| B1 | binds |  |
| B2 |  | binds |
